Molecular target: gamma complex labeled with AF488 on delta' (gammac-AF488);beta sliding clamp (Escherichia coli;Escherichia coli, UniProt P06710-2;P28630;P28631;P28905;P28632;P0A988 1-431;1-343;1-334;1-147;1-137;1-366, |)
Assay: fluorescence anisotropy

B1: p/t-DNA-RhX (30-nt primer on 60-nt template) (dsDNA)
DNA 1: TTCAGGTCAGAAGGGTTCTATCTCTGTTGGCCAGAATGTCCCTTTTATTACTGGTCGTGT
DNA 2: ACACGACCAGTAATAAAAGGGACATTCTGG
modifications: C6-amino linker at 5' end of 60mer
B1: binds.

From article PMC2759312
